In PMC2063867 (The Journal of Cell Biology, 2006):

T1: FLAG-GIT1 (synthesized in vitro) (UniProt Q9Y2X7 1-761)
T1 sequence: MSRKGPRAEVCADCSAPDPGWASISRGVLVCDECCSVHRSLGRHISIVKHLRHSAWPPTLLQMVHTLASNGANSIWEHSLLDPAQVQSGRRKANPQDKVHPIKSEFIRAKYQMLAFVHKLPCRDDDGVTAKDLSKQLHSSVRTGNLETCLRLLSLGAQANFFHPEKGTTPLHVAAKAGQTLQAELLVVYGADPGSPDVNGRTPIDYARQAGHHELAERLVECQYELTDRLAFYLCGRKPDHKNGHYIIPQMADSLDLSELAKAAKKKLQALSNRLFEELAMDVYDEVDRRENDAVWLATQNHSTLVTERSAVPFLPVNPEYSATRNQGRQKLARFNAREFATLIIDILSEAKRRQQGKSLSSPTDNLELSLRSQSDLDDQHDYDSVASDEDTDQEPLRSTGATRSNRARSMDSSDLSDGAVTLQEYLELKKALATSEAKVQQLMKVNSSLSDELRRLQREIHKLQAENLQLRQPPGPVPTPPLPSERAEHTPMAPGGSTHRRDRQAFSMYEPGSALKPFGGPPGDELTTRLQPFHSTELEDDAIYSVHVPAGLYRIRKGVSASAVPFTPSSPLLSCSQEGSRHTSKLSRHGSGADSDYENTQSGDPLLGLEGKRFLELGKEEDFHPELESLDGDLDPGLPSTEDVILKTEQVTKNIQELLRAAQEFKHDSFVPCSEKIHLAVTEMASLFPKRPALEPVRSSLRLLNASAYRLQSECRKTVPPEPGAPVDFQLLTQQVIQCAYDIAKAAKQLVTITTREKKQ


Assays:
Assay in all cases: co-IP
[1] = molecular target: T1, FLAG-GIT1 (synthesized in vitro)
S273A-paxillin-GFP = S273A-paxillin-GFP (UniProt P49024 1-559, S273A)
S273A-paxillin-GFP, sequence (P49024 whole entry S273A): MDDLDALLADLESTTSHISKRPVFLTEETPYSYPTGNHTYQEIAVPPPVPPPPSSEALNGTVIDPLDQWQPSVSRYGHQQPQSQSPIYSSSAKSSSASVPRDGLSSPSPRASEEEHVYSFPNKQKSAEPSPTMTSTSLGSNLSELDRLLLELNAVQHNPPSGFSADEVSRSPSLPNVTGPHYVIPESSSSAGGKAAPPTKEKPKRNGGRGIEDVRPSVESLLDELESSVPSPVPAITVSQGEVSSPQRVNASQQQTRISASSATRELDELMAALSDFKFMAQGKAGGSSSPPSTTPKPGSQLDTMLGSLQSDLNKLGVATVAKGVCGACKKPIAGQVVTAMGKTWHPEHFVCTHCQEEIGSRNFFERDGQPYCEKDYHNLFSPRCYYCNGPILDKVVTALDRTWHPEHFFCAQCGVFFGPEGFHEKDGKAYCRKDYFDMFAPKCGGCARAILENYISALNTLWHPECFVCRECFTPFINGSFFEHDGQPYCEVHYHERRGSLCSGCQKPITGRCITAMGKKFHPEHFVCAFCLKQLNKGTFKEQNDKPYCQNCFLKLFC

S273D-paxillin-GFP = S273D-paxillin-GFP (UniProt P49024 1-559, S273D)
S273D-paxillin-GFP, sequence (P49024 whole entry S273D): as the sequence (P49024 whole entry S273A) above, with A273D counted along it

Binder	fold increase of phospho–S273-paxillin bound to FLAG-GIT1 with CA- versus KD-PAK [1] [fold]	fold decrease of GIT1 binding against WT-paxillin (S273A-paxillin-GFP) [fold]	fold increase of GIT1 binding against WT-paxillin (S273D-paxillin-GFP) [fold]
phospho–S273-paxillin (untagged WT-paxillin synthesized in vitro and incubated with CA-myc-PAK1) (natural protein, phosphoserine at 273) not shown	7	–	–
FLAG-GIT1 (expressed in CHO-K1 cells) (natural protein) MSRKGPRAEVCADCSAPDPGWASISRGVLVCDECCSVHRSLGRHISIVKHLRHSAWPPTLLQMVHTLASNGANSIWEHSLLDPAQVQSGRRKANPQDKVHPIKSEFIRAKYQMLAFVHKLPCRDDDGVTAKDLSKQLHSSVRTGNLETCLRLLSLGAQANFFHPEKGTTPLHVAAKAGQTLQAELLVVYGADPGSPDVNGRTPIDYARQAGHHELAERLVECQYELTDRLAFYLCGRKPDHKNGHYIIPQMADSLDLSELAKAAKKKLQALSNRLFEELAMDVYDEVDRRENDAVWLATQNHSTLVTERSAVPFLPVNPEYSATRNQGRQKLARFNAREFATLIIDILSEAKRRQQGKSLSSPTDNLELSLRSQSDLDDQHDYDSVASDEDTDQEPLRSTGATRSNRARSMDSSDLSDGAVTLQEYLELKKALATSEAKVQQLMKVNSSLSDELRRLQREIHKLQAENLQLRQPPGPVPTPPLPSERAEHTPMAPGGSTHRRDRQAFSMYEPGSALKPFGGPPGDELTTRLQPFHSTELEDDAIYSVHVPAGLYRIRKGVSASAVPFTPSSPLLSCSQEGSRHTSKLSRHGSGADSDYENTQSGDPLLGLEGKRFLELGKEEDFHPELESLDGDLDPGLPSTEDVILKTEQVTKNIQELLRAAQEFKHDSFVPCSEKIHLAVTEMASLFPKRPALEPVRSSLRLLNASAYRLQSECRKTVPPEPGAPVDFQLLTQQVIQCAYDIAKAAKQLVTITTREKKQ	–	2	~3
